# Measured values reported in patent publication US20260091068A1, “METHODS FOR TREATING AND PREVENTING DISEASES” (priority 2017, published 2026).
# Test system: Bacteriophages of E. coli
# Assay: Inactivation of bacteriophages by nucleases and proteases, titer by Gratia's method (Example 22)
# Format: cell-based
# Settings: E. coli phage treated with 10 mcg/ml enzyme for 30 min
# Method: As a control, when the original phage is added back, the titer increases.
molecule,measurement,value
"Proteinase K: Proteinase K (Promega) (protein, UniProt P06873 106-384, looked up) Proteinase K: AAQTNAPWGLARISSTSPGTSTYYYDESAGQGSCVYVIDTGIEASHPEFEGRAQMVKTYYYSSRDGNGHGTHCAGTVGSRTYGVAKKTQLFGVKVLDDNGSGQYSTIIAGMDFVASDKNNRNCPKGVVASLSLGGGYSSSVNSAAARLQSSGVMVAVAAGNNNADARNYSPASEPSVCTVGASDRYDRRSSFSNYGSVLDIFGPGTSILSTWIGGSTRSISGTSMATPHVAGLAAYLMTLGKTTAASACRYIADTANKGDLSNIPFGTVNLLAYNNYQA",Phage titer (by Gratia's method),6 × 10^4
